Values of other authors as cited in patent US20260256431A1, “IMAGING OF MATRIX METALLOPROTEINASE INHIBITORS” (Micro Vide, LLC, priority 2022, published 2026).

System: MMP-2, MMP-9, and MMP-14

B1: rTIMP-3: recombinant tissue inhibitor of metalloproteinases-3 (protein, UniProt P35625 24-211, looked up)
Metalloproteinase inhibitor 3: CTCSPSHPQDAFCNSDIVIRAKVVGKKLVKEGPFGTLVYTIKQMKMYRGFTKMPHVQYIHTEASESLCGLKLEVNKYQYLLTGRVYDGKMYTGLCNFVERWDQLTLSQRKGLNYRYHLGCNCKIKSCYYLPCFVTSKNECLWTDMLSNFGYPGYQSKHYACIRQKGGYCSWYRGWAPPDKSIINATDP
MMP activity and LV remodeling and indices of heart failure progression (intracoronary delivery in pigs at the time of reperfusion, earlier study): favorably reduced
tissue MMP-2, MMP-9, and MMP-14 activity (sustained release of rTIMP-3 from a hydrogel, observed previously): inhibition
